From article PMC5915351

B1: BmbD (YcaO protein, thiazoline-forming), maltose-binding protein fusion (enzyme)
chain: MREATATECELREVVHRSYPSERTVTVRCTVRPAEGSAQADGYGTATTEAVARAKALSEAVERLVACTPFATVARPPTACADPGTGSGPVPPFPAAGVRTAPEGCAGRVYRPLTGGGPRRVPLYWSSPWTAGAELRAGTLTAAEARLSSTVGWAVAPTPEGALRGALLELTELIDYGVFLHRRLAGPARRPSAGDRTLVVPLGGIGRTPAVLAVAYGRGRLMPATGLGCGATRGEATDRALLELAQAETMWRSNPTAEPAERFFLRRFERWPLLARCATLDFDLPDPRDPPARSGPAGGPGPYDDGPCPASPLEELEAGGIRVWADSGAVDISGPDIPRTRLCFAHVVSDPQPLLGLVRAGIPVFDTGEVRRTLDPSRRPADRPADRGGHRDRSADRGPARRGHEGRRSA
B2: BmbE (YcaO protein, macrolactamidine-forming), maltose-binding protein fusion (enzyme)
chain: MTRPADPQTAPQTEAATETDPLTAVLLDGATKEDVPPERETDIRQALASVGDWLAAEGLTADIRKYGIESAPTYEVRLSEASGALCSRSSGKGLGHRSMASALFESAEHYHLDWRRDPRASEAEFRPGREIAEQATARRSALLGRLGQIMPDAPVLTRTYRPVEEALTGRAGDGEADGPHRHPVFLRDGGYRNWPHPDDDRSFQPLWHYTSSAGYAAGATRHEALVHAVNELIERDAWSYQLARSYFGLPGEGPELRVVEHGTLPAELRELTRTVEEVRGAPVLIVDITCDTGVPAYVVCDARSREDVRLIGSGASPVRTYAVQRALLEYLQVRTMFENGPVDADTEAGQIGTALARYPRHLAAARFDIHRLPHESTAFEADDGLPAATGPERLLRHLVDRLRESGVEAHHRVLTPPGPVTVVDVVAPGLEMFDKARAGYPVLPTGRLGERLRPRGDGGGARR

Biological target: BmbC-C8S/S43C, fluorescein-labelled (bottromycin precursor peptide double variant) (Streptomyces bottropensis)
Assay: fluorescence polarisation

**Q.** With “RRE domain excised from BmbF (radical-SAM methyltransferase) (domain or fragment)” as the molecule, how does the Kd read?
**A.** Its Kd is 597 nM.

**Q.** For “RRE domain excised from BmbB (radical-SAM methyltransferase) (domain or fragment)”, which Kd is on record?
**A.** The Kd was 876 nM.

**Q.** B1 was tested. Which Kd did it give?
**A.** The Kd was greater than 50000 nM.

**Q.** Which Kd does the source give for B2 here?
**A.** Its Kd is greater than 50000 nM.
